Assay results published in US20240218024A1, “METHODS AND COMPOSITIONS FOR TREATMENT OF VIRAL INFECTION” (TECHNION RESEARCH & DEVELOPMENT FOUNDATION LIMITED, priority 2021, published 2024).

B1: PCP-3×: class I slncRNA with three PCP binding hairpins (SEQ ID NO: 23) (nucleic acid)
chain: GAGAAACGTTTCGACATTATATGGAATGCGAAACACGGAGGATGCGGGAAACATGAAGATCACTCATGTTCGCTTAACCATGGATAGGGATCACCCATGTTGCGGTGGTGCGTCAACCAGAGATTTCATATGGGAAACTCTGGGACACGCTGTATTTATACATGAGGATCACCATGTGTGCTTAAATATGGGTAATTCCAGTTTATATGGAAACGGA
B2: PCP-4×: class I slncRNA with four PCP binding hairpins (SEQ ID NO: 24) (nucleic acid)
chain: GAGAAACGTTTCGACATTATATGGAATGCGAAACACGGAGGATGCGGGAAACATGAAGATCACTCATGTTCGCTTAACCATGGATAGGGATCACCCATGTTGCGGTGGTGCGTCAACCAGAGATTTCATATGGGAAACTCTGGGACACGCTGTATTTATACATGAGGATCACCATGTGTGCTTAAATATGGGTAATTCCAGTTTATATGGAAACGGAATAAGATTAGATATGGTTTAAACGACAATATATGGATTGCGTTTTGGGGCACGCCGTCTGGTTACTGCGATGGGTGGGAGGTAGAGGGATTCTAAGCTTAAGA

Test: In vitro slncRNA and slncRNA-protein granule formation (fluorescence microscopy)
Type: physicochemical

Molecule | formation of fluorescent condensates, slncRNA only (8.5 nM slncRNA, granule forming buffer, 1 hour room temperature) | median mCherry fluorescence of SRNP granules relative to PCP-14×/MCP-15× granules (SRNP granules with tdPCP-mCherry) | granule formation / colocalization with tdPCP-mCherry (slncRNA plus 25 nM tdPCP-mCherry) | Poisson parameter λ best fit of condensate fluorescence intensity distribution (slncRNA-only condensates)
B1 | no such structures were detected | half as bright | witnessed in the presence of the protein | –
B2 | – | – | – | 0
